# In the DeepSol protein solubility set:
# Assay: soluble on expression in E. coli; label from the status in PepcDB or PDB records
row,Sequence,soluble on expression in E. coli
1,VTNSTDGRADGRLRVVVLGSTGSIGTQALQVIADNPDRFEVVGLAAGGAHLDTLLRQRAQTGVTNIAVADEHAAQRVGDIPYHGSDAATRLVEQTEADVVLNALVGALGLRPTLAALKTGARLALANKESLVAGGSLVLRAARPGQIVPVDSEHSALAQCLRGGTPDEVAKLVLTASGGPFRGWSAADLEHVTPEQAGAHPTWSMGPMNTLNSASLVNKGLEVIETHLLFGIPYDRIDVVVHPQSIIHSMVTFIDGSTIAQASPPDMKLPISLALGWPRRVSGAAAACDFHTASSWEFEPLDTDVFPAVELARQAGVAGGCMTAVYNAANEEAAAAFLAGRIGFPAIVGIIADVLHAADQWAVEPATVDDVLDAQRWARERAQRAVSGMASVAIASTAKPGAAGRHASTLERS,soluble
2,VTPQYQATSTIYVLGNSVSMSGVDLTLSKQLTADFSVLAKSRPVMNKIEEKLKADYKYKDLNYSVEQLQGMITIENPSGTSLMRMTATNSDAQLAADIANAAADAVAERISEVMVIDKPSSVEEAEKPNYPVSPNVKKNM,not soluble
3,VTRPRPPLGPAMAGAVDLSGIKQRAQQNAAASTDADRALSTPSGVTEITEANFEDEVIVRSDEVPVVVLLWSPRSEVCVDLLDTLSGLAAAAKGKWSLASVNVDVAPRVAQIFGVQAVPTVVALAAGQPISSFQGLQPADQLSRWVDSLLSATAGKLKGAASSEESTEVDPAVAQARQQLEDGDFVAARKSYQAILDANPGSVEAKAAIRQIEFLIRATAQRPDAVSVADSLSDDIDAAFAAADVQVLNQDVSAAFERLIALVRRTSGEERTRVRTRLIELFELFDPADPEVVAGRRNLANALY,not soluble
4,VTTRDLTAAQFNETIQSSDMVLVDYWASWCGPCRAFAPTFAESSEKHPDVVHAKVDTEAERELAAAAQIRSIPTIMAFKNGKLLFNQAGALPPAALESLVQQLKAYEVEAGEATTQNGRAQQA,soluble
5,VTYEEEAVPAPVRGRLEVLSDLLYVASPDRAMVFTRTKAETEEIAQGLLRLGHPAQALHGDMSQGERERVMGAFRQGEVRVLVATDVAARGLDIPQVDLVVHYRMPDRAEAYQHRSGRTGRAGRGGRVVLLYGPRERRDVEALERAVGRRFKRVNPPTPEEVLEAKWRHLLARLARVPEKDYRLYQDFAGRLFAEGRVEVVAALLALLLGGAPAERSLLTGEEGWRTYKATGPRLSLPRLVALLKGQGLEVGKVAEAEGGFYVDLRPEARPEVAGLRLEPARRVEGLLEIPSRTRRPARA,soluble
6,VVSIVDTLMFDTGRAEVKPDFQKKLVEIGEILKTIDNYIRIEGHTDNTPISNSQYASNIELGSARSNNVEHLFIDVSKIPVTQMYTVSYADTRPVADNNSEAGKARNRRVDIVILNSKFNAVEQESSGK,not soluble
7,VWVSENIERLIGYTPGEALAPGWWLSHLYPDDREQVLERQPILLSDGQLTHDYRFYHRDGRIIWILDELRLIRNADGQPHEVVGTWLDIS,not soluble
8,WAALHEGLNIRQAEVHGMSQRGGAVQSHLRISDQELFADLIGLGTGDLILSVEPLEALRYLPYLAPDGRIVTSLDPFVNMTGYPPMEEIEAELGKTGRPVLVHAADLAKDAGSARASNMVMLGAGAPFAGIAPSKLEASIEALFSTKGQEVVDINIRAFRKGLQL,not soluble
9,WAIFVEQSDGHYRVRLRSKSHIINEIAKRHNGGGHPLASGANSYSLEENQAIYQ,soluble
10,WCAETAPEPQVEPEPEVLPEPDRGSATPAELGINSLDIVRLANRIEDATGTRPSLATLLNQPWQESLAMVEVLEPRPALASEQKPELVPDRDREVIDVVGAGMALGARIRAEVPISEEPVEDQFVQVGQWLKQLRAVVEPAGCMQVTPPSGNILCAIDITPGEKADVSDHAPLTPLQLGYLVGRADTWLGEPVAPHYYTEVEVADLDVVALQRALDEVVRAHPALMLGVHDDGNQGLSEALRPRLVVTDLRDHPDPDGELERIRAVGCAGVSDPLGTAWFQLRATLLPTAVR,not soluble
11,YGHNELPAEEGKSLWELVIEQFEDLLVRILLLAACISFVLAW,soluble
12,YHLSLKQVNRLFDDDMVDFGEAALRLLDLATEDQAGEDGSITEIIERSREAIQGLPLLRRESALGYALWRDGQPLLSSLNLPPEITAQGPGFSTVEAQGTHWRVLQLNIDGFQIWISENLIYRQHTMNLL,not soluble
13,YLYLEITNRCNLKCEMCFKQYWEDKEGDMDWDLFLKILDDAKEFPELKMIYFGGIGEPSVHPRFMDMVREVKRRGFRLGMSTNGVLLEDKILEEFVKLGVDVVYFSMDAIPTPSNIVTLGHITSKVVESRIKKLVELKKRYKTEKPTIGVEVVATKENYKQLPEMAIYLRNLGVDSMLISNLIPMTKEH,not soluble
14,YQPNYFLSIPITNKKITAGIKVLQNSILRQDNRLTKAMVGDGSFHITLLVMQLLNEDEVNIGTDALLELKPFVEEILEGKHLTLPFHGIGTFQGQVGFVKLADGDHVSALLEIAETAKRTFQEKGILAGESRTFKPHLTFMKLSKAPMLWKKGVRKIEPGLYEQFIDHRFGEEILYQIDLCSMLKKKQSNGYYHCESSIVIGEKD,soluble
15,YRALFEHAIDGIFIMDAEGHYLDVNPAICSAIGYTRDEFLALDWGVLSRGVDSGWAAASLARIVGGEPLREERTVWTRNGDQLTVELSAHLLPDGKILGIARDVS,soluble
